Values quoted from earlier work as cited in paper PMC6006206.

Target: SufE (UniProt A7ZME4)
UniProt A7ZME4, sequence (A7ZME4 whole entry): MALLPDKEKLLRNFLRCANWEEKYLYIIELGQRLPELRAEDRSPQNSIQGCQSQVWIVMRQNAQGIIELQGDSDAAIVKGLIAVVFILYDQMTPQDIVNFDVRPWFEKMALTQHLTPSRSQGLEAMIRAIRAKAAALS

Kd: 360 nM
Substance: SufS (from UniProt A7ZME5)
